Among the data in publication PMC5017731 are field-stimulated myocyte shortening after 2 h with 5, 10 and 15 uM GSTM2C, as percent of control (3.0%, 10.9% and 42.8%); significant only values, retold here.

This assay deals with cardiac ryanodine receptor (RyR2) (rat (endogenous in neonatal ventricular cardiomyocytes)) (UniProt B0LPN4).
UniProt B0LPN4, sequence (B0LPN4 whole entry): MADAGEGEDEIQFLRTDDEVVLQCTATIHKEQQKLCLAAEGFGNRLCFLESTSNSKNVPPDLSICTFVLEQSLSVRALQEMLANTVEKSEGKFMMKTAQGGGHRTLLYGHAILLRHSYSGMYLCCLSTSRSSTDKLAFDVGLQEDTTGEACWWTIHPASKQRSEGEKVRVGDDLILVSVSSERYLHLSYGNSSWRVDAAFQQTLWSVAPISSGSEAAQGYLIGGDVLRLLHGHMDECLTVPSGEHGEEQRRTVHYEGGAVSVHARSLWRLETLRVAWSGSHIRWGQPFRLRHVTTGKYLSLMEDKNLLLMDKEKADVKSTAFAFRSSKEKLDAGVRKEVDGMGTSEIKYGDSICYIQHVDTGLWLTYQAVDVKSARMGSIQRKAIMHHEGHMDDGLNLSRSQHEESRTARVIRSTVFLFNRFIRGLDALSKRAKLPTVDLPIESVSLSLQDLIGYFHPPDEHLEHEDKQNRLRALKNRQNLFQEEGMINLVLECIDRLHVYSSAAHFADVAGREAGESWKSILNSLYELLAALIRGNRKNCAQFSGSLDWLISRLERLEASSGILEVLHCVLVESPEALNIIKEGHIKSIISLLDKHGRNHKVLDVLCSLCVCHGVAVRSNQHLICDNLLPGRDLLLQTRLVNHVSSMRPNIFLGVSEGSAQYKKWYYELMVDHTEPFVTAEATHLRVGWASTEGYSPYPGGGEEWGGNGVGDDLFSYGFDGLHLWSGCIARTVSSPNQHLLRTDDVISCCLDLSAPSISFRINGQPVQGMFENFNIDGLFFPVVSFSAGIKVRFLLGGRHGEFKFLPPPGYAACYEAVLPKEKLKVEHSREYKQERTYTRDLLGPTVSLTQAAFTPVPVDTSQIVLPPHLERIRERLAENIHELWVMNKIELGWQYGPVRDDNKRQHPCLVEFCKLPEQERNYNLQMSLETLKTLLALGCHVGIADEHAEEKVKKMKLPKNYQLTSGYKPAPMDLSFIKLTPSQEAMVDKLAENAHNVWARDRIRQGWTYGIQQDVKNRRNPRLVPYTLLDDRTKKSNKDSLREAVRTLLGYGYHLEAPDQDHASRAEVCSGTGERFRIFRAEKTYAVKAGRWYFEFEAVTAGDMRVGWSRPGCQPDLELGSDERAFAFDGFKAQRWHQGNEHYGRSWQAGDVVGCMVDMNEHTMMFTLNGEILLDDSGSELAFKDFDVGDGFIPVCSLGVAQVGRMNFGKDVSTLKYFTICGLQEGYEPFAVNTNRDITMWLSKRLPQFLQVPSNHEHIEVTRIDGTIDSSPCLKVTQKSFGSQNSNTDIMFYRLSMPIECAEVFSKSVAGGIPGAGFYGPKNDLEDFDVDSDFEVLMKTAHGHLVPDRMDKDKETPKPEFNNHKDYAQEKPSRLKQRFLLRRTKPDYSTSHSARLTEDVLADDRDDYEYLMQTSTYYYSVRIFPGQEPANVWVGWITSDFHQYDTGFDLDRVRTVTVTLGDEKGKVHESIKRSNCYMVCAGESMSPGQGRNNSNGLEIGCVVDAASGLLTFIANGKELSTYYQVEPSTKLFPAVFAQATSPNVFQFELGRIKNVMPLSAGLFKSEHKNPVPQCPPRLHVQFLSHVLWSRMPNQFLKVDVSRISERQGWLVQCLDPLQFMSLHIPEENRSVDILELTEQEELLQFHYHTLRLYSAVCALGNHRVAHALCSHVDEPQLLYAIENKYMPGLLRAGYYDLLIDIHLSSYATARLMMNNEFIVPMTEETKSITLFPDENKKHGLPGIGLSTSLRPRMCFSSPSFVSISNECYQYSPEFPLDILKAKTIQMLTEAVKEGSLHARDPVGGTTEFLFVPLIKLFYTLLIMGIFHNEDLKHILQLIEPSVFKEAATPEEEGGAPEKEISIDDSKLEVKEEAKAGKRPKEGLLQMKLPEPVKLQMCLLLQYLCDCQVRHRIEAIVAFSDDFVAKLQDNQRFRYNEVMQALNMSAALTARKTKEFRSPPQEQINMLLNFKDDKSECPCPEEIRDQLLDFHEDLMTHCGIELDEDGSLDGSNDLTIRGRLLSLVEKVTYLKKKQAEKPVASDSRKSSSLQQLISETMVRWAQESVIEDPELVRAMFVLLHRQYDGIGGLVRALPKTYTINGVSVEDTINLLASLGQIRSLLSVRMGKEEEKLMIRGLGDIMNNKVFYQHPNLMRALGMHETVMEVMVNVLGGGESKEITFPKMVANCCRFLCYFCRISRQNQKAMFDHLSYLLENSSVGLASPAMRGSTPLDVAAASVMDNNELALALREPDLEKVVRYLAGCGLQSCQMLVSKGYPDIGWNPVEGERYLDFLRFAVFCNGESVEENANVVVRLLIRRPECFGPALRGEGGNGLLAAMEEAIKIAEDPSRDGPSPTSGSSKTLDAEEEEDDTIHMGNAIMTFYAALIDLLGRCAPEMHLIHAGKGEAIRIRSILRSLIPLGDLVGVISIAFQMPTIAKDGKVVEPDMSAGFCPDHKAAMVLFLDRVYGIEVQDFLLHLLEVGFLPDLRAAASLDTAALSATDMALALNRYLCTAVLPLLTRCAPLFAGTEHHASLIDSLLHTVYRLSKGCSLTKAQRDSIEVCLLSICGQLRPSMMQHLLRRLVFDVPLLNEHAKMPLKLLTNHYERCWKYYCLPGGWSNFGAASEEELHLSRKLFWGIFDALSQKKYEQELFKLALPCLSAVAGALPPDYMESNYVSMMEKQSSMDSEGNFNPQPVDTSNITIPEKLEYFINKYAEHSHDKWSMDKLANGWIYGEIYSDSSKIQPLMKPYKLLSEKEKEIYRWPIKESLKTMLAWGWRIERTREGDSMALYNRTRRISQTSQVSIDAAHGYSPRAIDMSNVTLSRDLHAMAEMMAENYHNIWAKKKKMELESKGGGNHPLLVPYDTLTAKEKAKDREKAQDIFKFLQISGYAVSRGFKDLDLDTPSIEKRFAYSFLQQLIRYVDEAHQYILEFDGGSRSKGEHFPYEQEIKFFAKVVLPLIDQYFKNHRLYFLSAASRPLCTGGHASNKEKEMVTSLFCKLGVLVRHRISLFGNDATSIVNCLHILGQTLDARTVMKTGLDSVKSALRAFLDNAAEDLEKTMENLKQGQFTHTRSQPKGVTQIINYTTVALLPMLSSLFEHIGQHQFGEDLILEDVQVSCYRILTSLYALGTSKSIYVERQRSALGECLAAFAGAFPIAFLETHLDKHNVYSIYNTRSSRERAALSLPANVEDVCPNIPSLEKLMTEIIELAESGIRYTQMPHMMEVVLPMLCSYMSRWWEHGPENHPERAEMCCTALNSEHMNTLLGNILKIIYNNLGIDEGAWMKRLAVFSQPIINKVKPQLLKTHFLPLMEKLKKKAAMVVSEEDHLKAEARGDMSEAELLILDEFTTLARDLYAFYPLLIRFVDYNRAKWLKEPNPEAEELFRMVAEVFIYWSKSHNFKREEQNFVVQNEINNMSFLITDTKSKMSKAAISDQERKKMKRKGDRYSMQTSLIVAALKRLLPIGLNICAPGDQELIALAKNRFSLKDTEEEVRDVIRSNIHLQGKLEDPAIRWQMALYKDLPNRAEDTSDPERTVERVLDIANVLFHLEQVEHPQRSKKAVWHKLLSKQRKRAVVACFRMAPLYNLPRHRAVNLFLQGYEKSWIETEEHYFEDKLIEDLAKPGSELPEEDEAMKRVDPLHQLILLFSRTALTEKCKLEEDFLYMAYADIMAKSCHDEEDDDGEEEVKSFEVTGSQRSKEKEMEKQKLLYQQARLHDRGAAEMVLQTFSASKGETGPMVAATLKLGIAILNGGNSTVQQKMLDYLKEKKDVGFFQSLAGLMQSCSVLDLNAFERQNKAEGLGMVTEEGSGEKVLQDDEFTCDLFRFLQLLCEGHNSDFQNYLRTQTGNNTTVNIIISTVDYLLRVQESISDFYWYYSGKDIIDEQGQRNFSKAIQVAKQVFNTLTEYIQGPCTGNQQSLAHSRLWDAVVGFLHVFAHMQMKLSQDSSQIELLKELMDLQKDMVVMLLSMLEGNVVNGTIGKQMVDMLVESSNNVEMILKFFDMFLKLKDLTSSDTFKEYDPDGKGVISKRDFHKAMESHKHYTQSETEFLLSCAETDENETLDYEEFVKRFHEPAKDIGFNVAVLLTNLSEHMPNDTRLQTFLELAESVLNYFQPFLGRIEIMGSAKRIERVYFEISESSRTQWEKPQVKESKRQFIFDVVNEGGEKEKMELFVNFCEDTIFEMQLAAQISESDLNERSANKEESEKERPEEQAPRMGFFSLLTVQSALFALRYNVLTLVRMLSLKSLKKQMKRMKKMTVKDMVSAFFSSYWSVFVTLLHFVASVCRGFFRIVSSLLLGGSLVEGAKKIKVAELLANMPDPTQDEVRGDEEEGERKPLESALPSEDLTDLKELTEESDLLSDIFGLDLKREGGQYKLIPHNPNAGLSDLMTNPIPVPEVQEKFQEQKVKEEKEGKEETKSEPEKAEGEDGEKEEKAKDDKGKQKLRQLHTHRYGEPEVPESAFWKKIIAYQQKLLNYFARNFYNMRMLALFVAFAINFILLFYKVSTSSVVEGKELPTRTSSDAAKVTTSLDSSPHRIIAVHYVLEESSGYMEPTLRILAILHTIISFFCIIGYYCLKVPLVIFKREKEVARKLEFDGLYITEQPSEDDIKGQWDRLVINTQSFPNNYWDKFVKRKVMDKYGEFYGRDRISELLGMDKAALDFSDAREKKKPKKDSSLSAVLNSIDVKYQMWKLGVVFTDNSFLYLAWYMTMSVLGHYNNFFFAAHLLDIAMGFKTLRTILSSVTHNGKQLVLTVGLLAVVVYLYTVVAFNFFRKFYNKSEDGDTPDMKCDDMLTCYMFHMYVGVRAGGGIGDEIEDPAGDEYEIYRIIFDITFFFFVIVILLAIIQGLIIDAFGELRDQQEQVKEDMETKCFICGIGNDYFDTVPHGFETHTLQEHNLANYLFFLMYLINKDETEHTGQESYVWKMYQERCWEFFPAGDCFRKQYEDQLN

B1: C-terminal half of GSTM2 (GSTM2C) (domain or fragment)
chain: PMTLGYWNIRGLAHSIRLLLEYTDSSYEEKKYTMGDAPDYDRSQWLNEKFKLGLDFPNLPYLIDGTHKITQSNAILRYIARKHNLCGESEKEQIREDILENQFMDSRMQLAKLCYDPDFEKLKPEYLQALPEMLKLYSQFLGKQPWFLGDKITFVDFIAYDVLERNQVFEPSCLDAFPNLKDFISRFEGLEKISAYMKSSRFLPRPVFTKMAVWGNK
B1: the field-stimulated myocyte shortening after 2 h with 5, 10 and 15 uM GSTM2C, as percent of control (3.0%, 10.9% and 42.8%); significant only at 15 uM is 42.8 % of control.
